From IntAct's records for PubMed 25819436

How the values were obtained:
[1] = target: amph_rat Amph (UniProt O08838)
[2] = target: sh3g2_rat Sh3gl2 (UniProt O35179)
[3] = target: sh3g1_rat Sh3gl1 (UniProt O35964)
[4] = target: grb2_human GRB2 (UniProt P62993)

Sequence of SLIT-ROBO Rho GTPase-activating protein 3 (Homo sapiens), O43295 P1056A;P1059A (O43295 whole entry P1056A/P1059A): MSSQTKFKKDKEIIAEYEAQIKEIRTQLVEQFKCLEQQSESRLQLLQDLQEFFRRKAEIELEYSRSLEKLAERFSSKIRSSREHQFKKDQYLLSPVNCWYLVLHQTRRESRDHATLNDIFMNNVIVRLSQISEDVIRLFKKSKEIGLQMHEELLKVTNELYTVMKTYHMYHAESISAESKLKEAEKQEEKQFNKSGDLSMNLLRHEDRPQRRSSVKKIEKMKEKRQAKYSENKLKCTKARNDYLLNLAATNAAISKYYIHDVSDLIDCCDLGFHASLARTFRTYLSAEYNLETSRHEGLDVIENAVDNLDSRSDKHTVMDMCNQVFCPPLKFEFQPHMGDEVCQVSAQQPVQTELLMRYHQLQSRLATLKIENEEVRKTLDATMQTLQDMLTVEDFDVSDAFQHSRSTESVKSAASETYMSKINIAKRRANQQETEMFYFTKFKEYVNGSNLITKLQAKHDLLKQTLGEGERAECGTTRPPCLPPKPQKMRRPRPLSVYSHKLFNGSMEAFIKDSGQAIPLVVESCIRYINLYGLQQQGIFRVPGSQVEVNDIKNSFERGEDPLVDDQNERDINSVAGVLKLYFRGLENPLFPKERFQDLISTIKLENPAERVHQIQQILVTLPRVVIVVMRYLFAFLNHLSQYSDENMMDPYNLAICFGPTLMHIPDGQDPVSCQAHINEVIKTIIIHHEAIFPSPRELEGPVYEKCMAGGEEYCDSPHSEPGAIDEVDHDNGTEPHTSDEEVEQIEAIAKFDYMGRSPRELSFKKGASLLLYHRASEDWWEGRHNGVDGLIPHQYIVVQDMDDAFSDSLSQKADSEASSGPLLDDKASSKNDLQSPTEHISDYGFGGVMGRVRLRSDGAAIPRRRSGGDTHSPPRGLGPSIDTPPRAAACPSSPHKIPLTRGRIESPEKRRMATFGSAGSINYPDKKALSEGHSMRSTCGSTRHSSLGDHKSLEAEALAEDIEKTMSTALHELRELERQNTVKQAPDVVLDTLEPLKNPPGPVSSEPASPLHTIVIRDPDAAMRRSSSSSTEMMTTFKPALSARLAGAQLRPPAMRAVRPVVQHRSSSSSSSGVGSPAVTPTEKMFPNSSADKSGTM
Sequence of sh3g2_rat Sh3gl2 (O35179 whole entry): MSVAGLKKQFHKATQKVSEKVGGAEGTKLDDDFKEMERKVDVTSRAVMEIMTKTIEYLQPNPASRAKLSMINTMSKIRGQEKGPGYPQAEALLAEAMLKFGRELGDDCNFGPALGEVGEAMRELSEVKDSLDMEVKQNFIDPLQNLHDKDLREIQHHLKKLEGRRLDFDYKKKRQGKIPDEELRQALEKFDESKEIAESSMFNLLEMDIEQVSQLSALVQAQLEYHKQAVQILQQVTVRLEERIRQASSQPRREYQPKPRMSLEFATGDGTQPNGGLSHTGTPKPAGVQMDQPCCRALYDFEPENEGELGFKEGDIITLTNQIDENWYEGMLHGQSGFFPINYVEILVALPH
Sequence of sh3g1_rat Sh3gl1 (O35964 whole entry): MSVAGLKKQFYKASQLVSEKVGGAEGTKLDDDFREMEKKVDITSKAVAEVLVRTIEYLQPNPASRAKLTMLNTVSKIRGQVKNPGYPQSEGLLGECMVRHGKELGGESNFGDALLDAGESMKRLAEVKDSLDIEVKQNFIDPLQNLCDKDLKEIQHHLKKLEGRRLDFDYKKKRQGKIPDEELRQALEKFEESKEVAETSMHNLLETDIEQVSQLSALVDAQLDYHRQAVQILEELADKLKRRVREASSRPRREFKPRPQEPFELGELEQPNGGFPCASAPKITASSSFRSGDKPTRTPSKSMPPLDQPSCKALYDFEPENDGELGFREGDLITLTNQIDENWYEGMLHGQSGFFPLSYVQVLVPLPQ
Sequence of amph_rat Amph (O08838 whole entry): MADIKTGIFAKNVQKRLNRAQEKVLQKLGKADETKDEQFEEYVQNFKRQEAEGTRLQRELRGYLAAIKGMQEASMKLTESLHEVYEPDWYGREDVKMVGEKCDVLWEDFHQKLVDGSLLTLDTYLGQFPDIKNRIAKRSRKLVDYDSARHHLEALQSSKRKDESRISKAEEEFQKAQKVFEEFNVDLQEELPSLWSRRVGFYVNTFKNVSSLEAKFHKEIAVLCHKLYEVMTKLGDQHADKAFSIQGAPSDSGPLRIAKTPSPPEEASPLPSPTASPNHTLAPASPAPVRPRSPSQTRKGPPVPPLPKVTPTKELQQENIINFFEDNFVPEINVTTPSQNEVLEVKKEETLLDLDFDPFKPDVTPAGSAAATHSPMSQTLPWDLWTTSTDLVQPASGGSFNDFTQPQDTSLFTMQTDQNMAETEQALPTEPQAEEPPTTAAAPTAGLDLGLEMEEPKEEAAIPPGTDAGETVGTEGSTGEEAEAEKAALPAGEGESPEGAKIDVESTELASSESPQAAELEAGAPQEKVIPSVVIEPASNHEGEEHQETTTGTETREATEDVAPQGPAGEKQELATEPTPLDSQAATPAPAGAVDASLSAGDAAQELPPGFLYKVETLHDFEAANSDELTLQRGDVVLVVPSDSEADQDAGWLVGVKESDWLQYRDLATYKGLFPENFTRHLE

effect of a mutation on the interaction [1]: disrupting interaction
effect of a mutation on the interaction [2]: disrupting interaction
effect of a mutation on the interaction [3]: disrupting interaction
effect of a mutation on the interaction [4]: disrupting interaction
Substance: SLIT-ROBO Rho GTPase-activating protein 3 (Homo sapiens), O43295 P1056A;P1059A
